Assay results reported in publication doi:10.1101/467423 (bioRxiv, 2018).

Molecular target: the molecule itself
Test: negative-stain electron microscopy

B1: Plasmodium falciparum actin I K270M mutant (natural protein)
chain: not shown
- binding result: binds
